The record followed here is article PMC5580921, “Homeodomain-like DNA binding proteins control the haploid-to-diploid transition in Dictyostelium”.

Data set [1] concerns the target T1, MatA K72A/K76A (Dictyostelium discoideum, UniProt D3UFF3 1-107, K72A;K76A).
T1 sequence: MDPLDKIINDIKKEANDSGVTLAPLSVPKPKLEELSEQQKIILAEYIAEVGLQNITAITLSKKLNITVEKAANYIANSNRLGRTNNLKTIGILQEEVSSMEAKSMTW
As to the kind of experiment: EMSA; EMSA: 10 mM Tris-HCl pH 7.4, 1 mM EDTA, 20 mM NaCl, 30 min room temperature, 6% polyacrylamide gel in 1x tris-borate. NMR: 25 mM phosphate pH 6, 50 mM NaCl, 50. As to conditions: protein: recombinant; tags: His6-lipoyl domain tag removed by TEV; label: none (SYBR Gold stain); blunt.

Data set [2] concerns the target T2, MatB (Dictyostelium discoideum, UniProt D3UFE5 1-107).
T2 sequence: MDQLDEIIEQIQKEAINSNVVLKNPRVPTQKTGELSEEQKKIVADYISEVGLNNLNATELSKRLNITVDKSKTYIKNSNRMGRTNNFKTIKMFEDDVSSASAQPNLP
As to the kind of experiment: EMSA; nonspecific; EMSA: 10 mM Tris-HCl pH 7.4, 1 mM EDTA, 20 mM NaCl, 30 min room temperature, 6% polyacrylamide gel in 1x tris-borate. NMR: 25 mM phosphate pH 6, 50 mM NaCl, 50. As to conditions: protein: recombinant; tags: His6-lipoyl domain tag removed by TEV; label: none (SYBR Gold stain); blunt.

For data set [3], the target named is T3, MatB S71A (Dictyostelium discoideum, UniProt D3UFE5 1-107, S71A).
T3 sequence: T2 sequence with S71A
As to the kind of experiment: EMSA; similar to wild type; EMSA: 10 mM Tris-HCl pH 7.4, 1 mM EDTA, 20 mM NaCl, 30 min room temperature, 6% polyacrylamide gel in 1x tris-borate. NMR: 25 mM phosphate pH 6, 50 mM NaCl, 50. As to conditions: protein: recombinant; tags: His6-lipoyl domain tag removed by TEV (15N-labeled for NMR); label: none (SYBR Gold stain); blunt.

Data set [4] has as its target T4, MatA (Dictyostelium discoideum, UniProt Q54HW9 1-107).
T4 sequence: T1 sequence with A72K, A76K
As to the kind of experiment: EMSA; smear; nonspecific, low affinity; EMSA: 10 mM Tris-HCl pH 7.4, 1 mM EDTA, 20 mM NaCl, 30 min room temperature, 6% polyacrylamide gel in 1x tris-borate. NMR: 25 mM phosphate pH 6, 50 mM NaCl, 50. As to conditions: protein: recombinant; tags: His6-lipoyl domain tag removed by TEV (15N-labeled for NMR); label: none (SYBR Gold stain); blunt.

The target of data set [5] is T4, MatA. As to the kind of experiment: NMR; 80 uM DNA, 20 uM MatA; CSPs at L32, L35, E69, I75, K76, N77; EMSA: 10 mM Tris-HCl pH 7.4, 1 mM EDTA, 20 mM NaCl, 30 min room temperature, 6% polyacrylamide gel in 1x tris-borate. NMR: 25 mM phosphate pH 6, 50 mM NaCl, 50. The conditions noted are these: protein: recombinant; tags: His6-lipoyl domain tag removed by TEV (15N-labeled for NMR); label: none; blunt.

Data set [6] deals with T3, MatB S71A. As to the kind of experiment: NMR; 80 uM DNA, 20 uM protein, 1 C; core signals lost by intermediate exchange broadening; EMSA: 10 mM Tris-HCl pH 7.4, 1 mM EDTA, 20 mM NaCl, 30 min room temperature, 6% polyacrylamide gel in 1x tris-borate. NMR: 25 mM phosphate pH 6, 50 mM NaCl, 50. As to conditions: protein: recombinant; tags: His6-lipoyl domain tag removed by TEV (15N-labeled for NMR); label: none; blunt.

For data set [7], the target named is T4, MatA. As to the kind of experiment: NMR; 58-bp titration 40-120 uM DNA, 20 uM MatA; fast exchange, very weak, unsaturated; EMSA: 10 mM Tris-HCl pH 7.4, 1 mM EDTA, 20 mM NaCl, 30 min room temperature, 6% polyacrylamide gel in 1x tris-borate. NMR: 25 mM phosphate pH 6, 50 mM NaCl, 50. The conditions noted are these: protein: recombinant; tags: His6-lipoyl domain tag removed by TEV (15N-labeled for NMR); label: none; blunt.

Residue numbers refer to the chain shown, from its start.

B1: EMSA dsDNA with MATalpha2 operator (dsDNA)
DNA 1: CCGAAACGTTTGGTGGCGCATGTAATTCATTTACACGCGCGAGGGCGTGCAAGATTC
DNA 2: GAATCTTGCACGCCCTCGCGCGTGTAAATGAATTACATGCGCCACCAAACGTTTCGG
With B1, the binding result in data set [1] is listed as “no binding”; in data set [2], “binds”; in data set [3] it was “binds”; in data set [4], “binds”.

B2: 29-bp DNA (dsDNA)
DNA 1: CCGAAACGTTTGGTGGCGGGACCAGTGAC
DNA 2: GTCACTGGTCCCGCCACCAAACGTTTCGG
Consider B2, for which the binding result in data set [5] and in data set [6] was “binds” in each case.

B3: 58-bp DNA (dsDNA)
DNA 1: GAATCTTGCACGCCCTCGCTCAAGCCTTCGTCACTGGTCCCGCCACCAAACGTTTCGG
DNA 2: CCGAAACGTTTGGTGGCGGGACCAGTGACGAAGGCTTGAGCGAGGGCGTGCAAGATTC
On to B3, for which the binding result in data set [7] was “binds”.
